From article PMC9482650, “Quantitative fragmentomics allow affinity mapping of interactomes” (Nature Communications, 2022)

T1: APBA2_1, Q99767
T1 sequence (Q99767 563-664, limits assumed, looked up): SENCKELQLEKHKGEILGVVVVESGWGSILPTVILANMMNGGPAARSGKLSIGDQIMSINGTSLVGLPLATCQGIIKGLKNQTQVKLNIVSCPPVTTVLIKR

T2: ARHGEF11, O15085
T2 sequence (O15085 42-136, limits assumed, looked up): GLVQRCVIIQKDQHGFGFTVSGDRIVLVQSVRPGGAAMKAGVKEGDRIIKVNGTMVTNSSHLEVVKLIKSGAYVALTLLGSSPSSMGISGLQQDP

T3: DFNB31_1, Q9P202
T3 sequence (Q9P202 135-233, limits assumed, looked up): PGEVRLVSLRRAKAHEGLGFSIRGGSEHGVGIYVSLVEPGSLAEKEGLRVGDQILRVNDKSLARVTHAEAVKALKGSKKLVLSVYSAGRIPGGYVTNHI

T4: DFNB31_3, Q9P202
T4 sequence (Q9P202 811-907, limits assumed, looked up): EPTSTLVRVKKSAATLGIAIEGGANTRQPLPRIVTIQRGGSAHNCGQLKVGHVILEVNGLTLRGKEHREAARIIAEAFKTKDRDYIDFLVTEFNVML

T5: DLG3_1, Q92796
T5 sequence (Q92796 125-227, limits assumed, looked up): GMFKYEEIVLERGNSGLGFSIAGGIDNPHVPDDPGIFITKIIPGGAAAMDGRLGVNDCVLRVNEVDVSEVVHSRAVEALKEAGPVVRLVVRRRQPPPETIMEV

T6: LIN7C, Q9NUP9
T6 sequence (Q9NUP9 88-185, limits assumed, looked up): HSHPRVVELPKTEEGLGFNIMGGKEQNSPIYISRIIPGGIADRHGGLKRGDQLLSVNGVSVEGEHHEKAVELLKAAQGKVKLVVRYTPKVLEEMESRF

T7: LRRC7, Q96NW7
T7 sequence (Q96NW7 1440-1537, limits assumed, looked up): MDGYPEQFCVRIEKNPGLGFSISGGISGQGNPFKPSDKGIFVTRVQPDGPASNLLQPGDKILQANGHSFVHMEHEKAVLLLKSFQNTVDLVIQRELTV

T8: MPDZ_12, O75970
T8 sequence (O75970 1857-1958, limits assumed, looked up): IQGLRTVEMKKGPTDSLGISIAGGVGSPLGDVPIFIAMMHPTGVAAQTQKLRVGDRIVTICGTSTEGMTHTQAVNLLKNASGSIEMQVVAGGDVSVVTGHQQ

T9: NHERF3_4, Q5T2W1
T9 sequence (Q5T2W1 373-468, limits assumed, looked up): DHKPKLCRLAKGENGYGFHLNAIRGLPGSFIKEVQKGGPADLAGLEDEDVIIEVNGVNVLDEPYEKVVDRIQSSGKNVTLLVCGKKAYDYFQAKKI

T10: PDZRN3_1, Q9UPQ7
T10 sequence (Q9UPQ7 244-349, limits assumed, looked up): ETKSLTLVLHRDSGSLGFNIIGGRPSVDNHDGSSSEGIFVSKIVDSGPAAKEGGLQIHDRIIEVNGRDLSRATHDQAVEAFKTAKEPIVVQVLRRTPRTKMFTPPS

T11: PTPN13_1, Q12923
T11 sequence (Q12923 1088-1188, limits assumed, looked up): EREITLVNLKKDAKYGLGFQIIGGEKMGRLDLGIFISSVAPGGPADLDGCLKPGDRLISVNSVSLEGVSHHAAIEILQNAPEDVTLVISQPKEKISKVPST

T12: TIAM2, Q8IVF5
T12 sequence (Q8IVF5 885-986, limits assumed, looked up): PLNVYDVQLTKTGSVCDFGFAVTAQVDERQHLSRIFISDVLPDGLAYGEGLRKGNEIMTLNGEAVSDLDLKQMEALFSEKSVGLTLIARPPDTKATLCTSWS


How the values were obtained:
Assay in all cases: holdup assay
Set-up in all cases: key: below the threshold = too weak to quantify, mostly under pKd 3.1 to 4
Details in all cases: plain residues with an end cap or a label only (N-terminal biotin on a linker: ado-ado)
[1] = molecular target: AHNAK1, Q09666
Chain of AHNAK1, Q09666 (Q09666 4-100): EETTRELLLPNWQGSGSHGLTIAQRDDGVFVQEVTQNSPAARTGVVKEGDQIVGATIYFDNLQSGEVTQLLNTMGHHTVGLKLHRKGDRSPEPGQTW

[2] = molecular target: T1, APBA2_1, Q99767
[3] = molecular target: T2, ARHGEF11, O15085
[4] = molecular target: T3, DFNB31_1, Q9P202
[5] = molecular target: T4, DFNB31_3, Q9P202
[6] = molecular target: DLG1_2, Q12959
Chain of DLG1_2, Q12959 (Q12959 314-412): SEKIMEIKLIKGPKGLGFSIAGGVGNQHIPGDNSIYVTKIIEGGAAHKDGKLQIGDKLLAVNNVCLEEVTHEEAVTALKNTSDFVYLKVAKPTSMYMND

[7] = molecular target: DLG1_3, Q12959
Chain of DLG1_3, Q12959 (Q12959 457-571): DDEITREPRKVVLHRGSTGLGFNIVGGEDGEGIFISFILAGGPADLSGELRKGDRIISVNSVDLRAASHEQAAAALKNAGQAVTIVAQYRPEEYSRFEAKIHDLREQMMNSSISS

[8] = molecular target: T5, DLG3_1, Q92796
[9] = molecular target: HTRA2, O43464
Chain of HTRA2, O43464 (O43464 355-458): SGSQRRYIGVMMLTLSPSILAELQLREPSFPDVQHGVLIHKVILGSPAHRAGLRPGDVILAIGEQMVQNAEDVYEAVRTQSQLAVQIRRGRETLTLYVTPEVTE

[10] = molecular target: Inadl_1, Q8NI35
Chain of Inadl_1, Q8NI35 (Q8NI35 113-229): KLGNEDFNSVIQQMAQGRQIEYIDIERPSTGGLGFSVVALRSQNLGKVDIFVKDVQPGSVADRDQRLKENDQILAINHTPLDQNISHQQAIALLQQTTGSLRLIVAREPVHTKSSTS

[11] = molecular target: Inadl_9, Q8NI35
Chain of Inadl_9, Q8NI35 (Q8NI35 1530-1615): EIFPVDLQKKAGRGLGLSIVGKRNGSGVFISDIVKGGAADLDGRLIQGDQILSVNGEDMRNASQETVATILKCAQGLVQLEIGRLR

[12] = molecular target: T6, LIN7C, Q9NUP9
[13] = molecular target: LNX1_3, Q8TBB1
Chain of LNX1_3, Q8TBB1 (Q8TBB1 500-596): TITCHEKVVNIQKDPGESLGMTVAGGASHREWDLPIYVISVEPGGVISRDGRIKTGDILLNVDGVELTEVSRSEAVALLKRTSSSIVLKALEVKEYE

[14] = molecular target: T7, LRRC7, Q96NW7
[15] = molecular target: MAGI1_1, Q96QZ7
Chain of MAGI1_1, Q96QZ7 (Q96QZ7 1-106): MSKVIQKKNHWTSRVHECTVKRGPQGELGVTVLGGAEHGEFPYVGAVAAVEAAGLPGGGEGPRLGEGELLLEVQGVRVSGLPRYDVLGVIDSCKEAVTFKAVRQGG

[16] = molecular target: MAGI2_6, Q86UL8
Chain of MAGI2_6, Q86UL8 (Q86UL8 1141-1229): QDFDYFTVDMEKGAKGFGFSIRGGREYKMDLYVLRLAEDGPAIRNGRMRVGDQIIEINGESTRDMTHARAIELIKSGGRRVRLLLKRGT

[17] = molecular target: MAST2, Q6P0Q8
Chain of MAST2, Q6P0Q8 (Q6P0Q8 1099-1202): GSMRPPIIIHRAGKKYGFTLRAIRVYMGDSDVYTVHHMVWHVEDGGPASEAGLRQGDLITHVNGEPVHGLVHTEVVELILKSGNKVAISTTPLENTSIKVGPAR

[18] = molecular target: T8, MPDZ_12, O75970
[19] = molecular target: NHERF2_2, Q15599
Chain of NHERF2_2, Q15599 (Q15599 142-238): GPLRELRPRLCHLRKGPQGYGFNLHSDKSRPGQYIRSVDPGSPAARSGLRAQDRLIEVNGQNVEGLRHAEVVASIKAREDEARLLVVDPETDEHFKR

[20] = molecular target: T9, NHERF3_4, Q5T2W1
[21] = molecular target: NHERF4_2, Q86UT5
Chain of NHERF4_2, Q86UT5 (Q86UT5 220-308): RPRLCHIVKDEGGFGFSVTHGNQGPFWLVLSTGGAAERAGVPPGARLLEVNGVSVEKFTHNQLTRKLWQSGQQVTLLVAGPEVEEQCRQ

[22] = molecular target: NHERF4_4, Q86UT5
Chain of NHERF4_4, Q86UT5 (Q86UT5 464-550): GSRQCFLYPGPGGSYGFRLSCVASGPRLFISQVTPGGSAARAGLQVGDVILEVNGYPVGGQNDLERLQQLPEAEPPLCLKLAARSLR

[23] = molecular target: T10, PDZRN3_1, Q9UPQ7
[24] = molecular target: T11, PTPN13_1, Q12923
[25] = molecular target: T12, TIAM2, Q8IVF5
[26] = molecular target: TJP1_3, Q07157
Chain of TJP1_3, Q07157 (Q07157 416-512): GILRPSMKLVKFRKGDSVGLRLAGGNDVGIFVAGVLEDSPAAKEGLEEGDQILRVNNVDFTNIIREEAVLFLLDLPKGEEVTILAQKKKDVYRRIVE

Binder	pKd [1]	pKd [2]	pKd [3]	pKd [4]	pKd [5]	pKd [6]	pKd [7]	pKd [8]	pKd [9]	pKd [10]	pKd [11]	pKd [12]	pKd [13]	pKd [14]	pKd [15]	pKd [16]	pKd [17]	pKd [18]	pKd [19]	pKd [20]	also measured
NLQEHSTTSV [RSBN1, Q5VWQ0]	below the threshold	below the threshold	4.13	3.72	below the threshold	3.99	3.76	below the threshold	below the threshold	below the threshold	below the threshold	below the threshold	below the threshold	below the threshold	below the threshold	4.16	5.61	below the threshold	3.59	below the threshold	pKd [21]: below the threshold; pKd [22]: below the threshold; pKd [23]: below the threshold; pKd [24]: below the threshold; pKd [25]: below the threshold; pKd [26]: below the threshold
IPGKEFDTPL [PLCB1, Q9NQ66]	below the threshold	below the threshold	below the threshold	4.03	below the threshold	3.57	below the threshold	below the threshold	below the threshold	below the threshold	below the threshold	below the threshold	below the threshold	below the threshold	below the threshold	3.49	4.95	below the threshold	5.1	4.31	pKd [21]: below the threshold; pKd [22]: below the threshold; pKd [23]: 4.33; pKd [24]: below the threshold; pKd [25]: below the threshold; pKd [26]: below the threshold
DHLGGGGESM [TNRC6A, Q8NDV7]	below the threshold	below the threshold	below the threshold	below the threshold	below the threshold	below the threshold	below the threshold	below the threshold	below the threshold	below the threshold	below the threshold	3.95	below the threshold	below the threshold	below the threshold	below the threshold	3.62	below the threshold	below the threshold	below the threshold	pKd [21]: below the threshold; pKd [22]: below the threshold; pKd [23]: below the threshold; pKd [24]: below the threshold; pKd [25]: below the threshold; pKd [26]: below the threshold

Continued, in another order:

pKd [1]	pKd [2]	pKd [3]	pKd [4]	pKd [5]	pKd [6]	pKd [7]	pKd [8]	pKd [9]	pKd [10]	pKd [11]	pKd [12]	pKd [13]	pKd [14]	pKd [15]	pKd [16]	pKd [17]	pKd [18]	pKd [19]	pKd [20]	Binder	also measured
below the threshold	below the threshold	4.13	3.64	3.88	5.26	4.38	4.43	below the threshold	below the threshold	3.75	4.29	below the threshold	3.56	3.55	3.85	5.23	below the threshold	below the threshold	below the threshold	TGLWKSETTV [ADGRA2, Q96PE1]	pKd [21]: below the threshold; pKd [22]: below the threshold; pKd [23]: 4.07; pKd [24]: below the threshold; pKd [25]: below the threshold; pKd [26]: below the threshold
below the threshold	below the threshold	4.13	below the threshold	below the threshold	3.52	below the threshold	below the threshold	below the threshold	below the threshold	4.03	below the threshold	below the threshold	below the threshold	below the threshold	below the threshold	4.01	below the threshold	below the threshold	below the threshold	HLRQQGSVEV [EPHB6, O15197]	pKd [21]: below the threshold; pKd [22]: below the threshold; pKd [23]: below the threshold; pKd [24]: below the threshold; pKd [25]: below the threshold; pKd [26]: below the threshold
